Assay results taken from patent US20230192896A1 (published 2023).

T1: FX zymogen (UniProt P00742 41-179; P00742 183-488)
T1 chain 1: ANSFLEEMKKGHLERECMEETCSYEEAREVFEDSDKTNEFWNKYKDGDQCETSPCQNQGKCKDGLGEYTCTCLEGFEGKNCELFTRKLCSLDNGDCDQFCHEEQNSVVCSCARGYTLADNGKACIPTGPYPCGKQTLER
T1 chain 2: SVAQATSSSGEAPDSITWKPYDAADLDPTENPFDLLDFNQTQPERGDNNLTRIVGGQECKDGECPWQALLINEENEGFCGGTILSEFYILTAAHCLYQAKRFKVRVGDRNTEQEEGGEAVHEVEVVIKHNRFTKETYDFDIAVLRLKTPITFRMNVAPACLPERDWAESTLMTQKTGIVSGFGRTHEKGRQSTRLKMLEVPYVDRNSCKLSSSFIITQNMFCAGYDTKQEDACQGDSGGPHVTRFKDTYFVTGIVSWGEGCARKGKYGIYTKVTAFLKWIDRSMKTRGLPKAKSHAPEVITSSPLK

B1: BIIB-12-1310 (antibody, V domains shown)
VH: EVQLVESGGGLVKPGGSLRLSCAASGFTFSSYSMNWVRQAPGKGLEWVSSISSSSSYIYYADSVKGRFTISRDNAKNSLYLQMNSLRAEDTAVYYCARLGGYGSSQRYFDLWGRGTLVTVSS
VL: EIVLTQSPATLSLSPGERATLSCRASQSVSRYLAWYQQKPGQAPRLLIYDASNRATGIPARFSGSGSGTDFTLTISSLEPEDFAVYYCEQASNWPPTFGGGTKVEIK
B2: BIIB-12-899 (antibody, V domains shown)
VH: QVQLVQSGAEVKKPGASVKVSCKASGYTFTSYYMHWVRQAPGQGLEWMGIINPSGGSTSYAQKFQGRVTMTRDTSTSTVYMELSSLRSEDTAVYYCARGPRTSSPLYFDLWGRGTLVTVSS
VL: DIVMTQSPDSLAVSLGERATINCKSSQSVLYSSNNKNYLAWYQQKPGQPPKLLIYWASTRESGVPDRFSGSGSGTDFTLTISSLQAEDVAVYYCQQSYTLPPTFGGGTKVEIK
B3: BIIB-12-914 (antibody, V domains shown)
VH: QVQLVQSGAEVKKPGASVKVSCKASGYTFTSYYMHWVRQAPGQGLEWMGIINPSGGSTSYAQKFQGRVTMTRDTSTSTVYMELSSLRSEDTAVYYCARAPRYRGTMDVWGQGTTVTVSS
VL: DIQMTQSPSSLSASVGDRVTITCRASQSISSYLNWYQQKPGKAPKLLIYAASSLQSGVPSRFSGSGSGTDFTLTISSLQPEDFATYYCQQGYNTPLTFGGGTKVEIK
B4: BIIB-12-913 (antibody, V domains shown)
VH: QVQLVQSGAEVKKPGASVKVSCKASGYTFTSYGISWVRQAPGQGLEWMGWISAYNGNTNYAQKLQGRVTMTTDTSTSTAYMELRSLRSDDTAVYYCARGGVSRFWGQGTLVTVSS
VL: EIVMTQSPATLSVSPGERATLSCRASQSVSSNLAWYQQKPGQAPRLLIYGASTRATGIPARFSGSGSGTEFTLTISSLQSEDFAVYYCQQYAPYPPLTFGGGTKVEIK
B5: BIIB-12-935 (antibody, V domains shown)
VH: QVQLVESGGGVVQPGRSLRLSCAASGFTFSSYGMHWVRQAPGKGLEWVAVISYDGSNKYYADSVKGRFTISRDNSKNTLYLQMNSLRAEDTAVYYCARELEYGHYGMDVWGQGTTVTVSS
VL: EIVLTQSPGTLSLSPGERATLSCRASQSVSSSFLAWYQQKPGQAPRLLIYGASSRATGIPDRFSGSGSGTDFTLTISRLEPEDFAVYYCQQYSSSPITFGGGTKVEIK
B6: BIIB-12-909 (antibody, V domains shown)
VH: QVQLVESGGGVVQPGRSLRLSCAASGFTFSSYGMHWVRQAPGKGLEWVAVISYDGSNKYYADSVKGRFTISRDNSKNTLYLQMNSLRAEDTAVYYCAKGKHRRRSFDIWGQGTMVTVSS
VL: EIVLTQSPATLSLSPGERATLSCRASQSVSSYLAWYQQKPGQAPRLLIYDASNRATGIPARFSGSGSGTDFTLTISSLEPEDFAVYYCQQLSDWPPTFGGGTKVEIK

Target: T1, FX zymogen
Assay: BLI

Kd [nM] | Binder
46.1 | B1
34.2 | B2
48.1 | B3
78.5 | B4
38.8 | B5
69.7 | B6
